B1: BBSome complex member BBS2 (Homo sapiens), Q9BXC9 (parent)
chain: MLLPVFTLKLRHKISPRMVAIGRYDGTHPCLAAATQTGKVFIHNPHTRNQHVSASRVFQSPLESDVSLLSINQAVSCLTAGVLNPELGYDALLVGTQTNLLAYDVYNNSDLFYREVADGANAIVLGTLGDISSPLAIIGGNCALQGFNHEGSDLFWTVTGDNVNSLALCDFDGDGKKELLVGSEDFDIRVFKEDEIVAEMTETEIVTSLCPMYGSRFGYALSNGTVGVYDKTSRYWRIKSKNHAMSIHAFDLNSDGVNELITGWSNGKVDARSDRTGEVIFKDNFSSAIAGVVEGDYRMDGHIQLICCSVDGEIRGYLPGTAEMRGNLMDTSAEQDLIRELSQKKQNLLLELRNYEENAKAELASPLNEADGHRGIIPANTRLHTTLSVSLGNETQTAHTELRISTSNDTIIRAVLIFAEGIFTGESHVVHPSIHNLSSSICIPIVPPKDVPVDLHLKAFVGYRSSTQFHVFESTRQLPRFSMYALTSLDPASEPISYVNFTIAERAQRVVVWLGQNFLLPEDTHIQNAPFQVCFTSLRNGGHLHIKIKLSGEITINTDDIDLAGDIIQSMASFFAIEDLQVEADFPVYFEELRKVLVKVDEYHSVHQKLSADMADHSNLIRSLLVGAEDARLMRDMKTMKSRYMELYDLNRDLLNGYKIRCNNHTELLGNLKAVNQAIQRAGRLRVGKPKNQVITACRDAIRSNNINTLFKIMRVGTASS
partner: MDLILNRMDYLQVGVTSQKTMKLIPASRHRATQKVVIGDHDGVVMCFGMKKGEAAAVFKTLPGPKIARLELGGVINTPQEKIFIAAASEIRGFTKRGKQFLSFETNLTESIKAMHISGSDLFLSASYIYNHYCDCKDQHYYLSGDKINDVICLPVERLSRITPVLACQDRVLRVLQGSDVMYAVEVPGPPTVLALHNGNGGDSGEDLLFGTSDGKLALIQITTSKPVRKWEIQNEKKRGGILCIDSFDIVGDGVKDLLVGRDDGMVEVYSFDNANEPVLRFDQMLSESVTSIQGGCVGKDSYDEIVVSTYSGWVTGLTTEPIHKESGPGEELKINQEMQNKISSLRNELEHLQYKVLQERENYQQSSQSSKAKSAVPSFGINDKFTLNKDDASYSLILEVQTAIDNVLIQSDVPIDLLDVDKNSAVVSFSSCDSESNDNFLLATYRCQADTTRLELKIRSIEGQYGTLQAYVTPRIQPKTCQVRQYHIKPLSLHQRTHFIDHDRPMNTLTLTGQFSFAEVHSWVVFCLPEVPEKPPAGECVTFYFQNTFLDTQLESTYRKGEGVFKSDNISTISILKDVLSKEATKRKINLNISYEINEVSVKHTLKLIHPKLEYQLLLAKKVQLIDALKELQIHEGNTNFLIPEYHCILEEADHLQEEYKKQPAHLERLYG

Variants of: B1
Details: with BBS7, Q8IWZ6-2

Row | effect of a mutation on the interaction | Variant
1 | with no effect | E578K
2 | with no effect | E578A
3 | with no effect | L593K
4 | with no effect | L593A
5 | with no effect | L593E
6 | disrupting interaction strength | F574L
7 | with no effect | F574K
8 | with no effect | F574E
9 | with no effect | F574A
10 | with no effect | D601E
11 | with no effect | D601K
12 | with no effect | D601A
13 | with no effect | D585E
14 | with no effect | D585K
15 | with no effect | D585A
16 | with no effect | F586K
17 | with no effect | F586E
18 | with no effect | F586A
19 | with no effect | V596K
20 | with no effect | V596E
21 | with no effect | V596A
22 | with no effect | Q581E
23 | with no effect | Q581K
24 | with no effect | Q581A

Row | effect of a mutation on the interaction | Variant
25 | with no effect | E602A
26 | with no effect | E602K
27 | with no effect | L580K
28 | with no effect | L580E
29 | with no effect | L580A
30 | with no effect | P587K
31 | with no effect | P587A
32 | with no effect | P587E
33 | with no effect | E591A
34 | with no effect | E591K
35 | with no effect | L597K
36 | with no effect | L597A
37 | with no effect | L597E
38 | with no effect | F590E
39 | with no effect | F590K
40 | with no effect | F590A
41 | with no effect | S570E
42 | with no effect | S570K
43 | with no effect | H604E
44 | with no effect | H604A
45 | with no effect | V600A
46 | with no effect | V600K
47 | with no effect | V600E
48 | with no effect | K595E

Row | effect of a mutation on the interaction | Variant
49 | with no effect | K595A
50 | with no effect | A584K
51 | with no effect | A584E
52 | with no effect | K599A
53 | with no effect | K599E
54 | with no effect | F575A
55 | with no effect | F575E
56 | with no effect | F575K
57 | with no effect | I577K
58 | with no effect | I577E
59 | with no effect | I577A
60 | with no effect | V588K
61 | with no effect | V588E
62 | with no effect | V588A
63 | with no effect | Y589K
64 | with no effect | Y589A
65 | with no effect | Y589E
66 | with no effect | Y603E
67 | with no effect | Y603A
68 | with no effect | Y603K
69 | with no effect | A576E
70 | with no effect | A576K
71 | with no effect | E583K
72 | with no effect | E583A

Row | effect of a mutation on the interaction | Variant
73 | with no effect | V598E
74 | with no effect | V598K
75 | with no effect | V598A
76 | with no effect | M571E
77 | with no effect | M571A
78 | with no effect | M571K
79 | with no effect | E592A
80 | with no effect | E592K
81 | with no effect | D579K
82 | with no effect | D579A
83 | with no effect | D579E
84 | with no effect | S573E
85 | with no effect | S573A
86 | with no effect | S573K
87 | with no effect | V582E
88 | with no effect | V582K
89 | with no effect | V582A
90 | with no effect | A572E
91 | with no effect | A572K
92 | with no effect | R594E
93 | with no effect | R594K
94 | with no effect | R594A
